Experimental findings from patent publication US20260265717A1 are described below.

The assay addresses T1, MG64-1 Cas12k expressed with an N-terminal Twin Strep tag and an HRV3C protease site and a C-terminal 2xNLS tag.
T1 sequence: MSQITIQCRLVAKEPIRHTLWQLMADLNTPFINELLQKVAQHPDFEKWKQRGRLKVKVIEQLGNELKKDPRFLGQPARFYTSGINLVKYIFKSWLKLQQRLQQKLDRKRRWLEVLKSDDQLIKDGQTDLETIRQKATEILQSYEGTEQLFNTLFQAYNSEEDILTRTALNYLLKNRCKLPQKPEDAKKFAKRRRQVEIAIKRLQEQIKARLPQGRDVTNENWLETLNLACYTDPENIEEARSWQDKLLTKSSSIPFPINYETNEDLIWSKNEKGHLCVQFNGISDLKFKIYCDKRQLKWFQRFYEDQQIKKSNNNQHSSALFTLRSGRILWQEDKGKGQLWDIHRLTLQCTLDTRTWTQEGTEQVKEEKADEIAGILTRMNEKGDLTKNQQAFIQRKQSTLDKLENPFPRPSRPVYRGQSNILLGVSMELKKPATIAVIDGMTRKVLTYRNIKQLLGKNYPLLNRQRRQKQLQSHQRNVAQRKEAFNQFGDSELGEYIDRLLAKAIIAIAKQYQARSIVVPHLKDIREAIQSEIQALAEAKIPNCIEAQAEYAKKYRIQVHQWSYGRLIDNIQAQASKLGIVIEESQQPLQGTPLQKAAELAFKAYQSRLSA
Nature of the assay: mass spectrometry of tryptic peptides from SEC-eluted Cas12k Strep pulldown complex; emPAI is a relative measure of abundance.

B1: MG64-1 TniQ (protein)
chain: MESREIQPWWFLVEPLAGESISHFLGRFRRENELTVTMMGKITGLGGTITRWEKFRFIPIPTEEELTALSEVVQVEVERLWQMFPPKGVGMKHQPIRLCGACYEEERCHKIEWQLKTTQFCSQHGLTLLSECPNCGARFQFPALWVNGWCHRCFLTFGEMVEGQSNKKKYL
Take B1: the emPAI amounted to 1.61.

B2: MG64-1 TnsC (protein)
chain: MTIQEAQAVAKQLGDIQLTSEKLQAEIQRLNRKTVVTLSHVEALHNWLEGKRQAKQSCRVVGESRTGKTIACNAYRLRHKPIQTPGKPPIVPVVYIQVTQECGAKDLFGAIIEHLKYQMTKGTVAEIRQRTFKVLQRCGVEMLIIDEADRLKPKTFAEVRDIFDKLNIAVVLVGTDRLDAVIKRDEQVYNRFRACHRFGKLAGDEFSQTVNIWERQVLKLPVASNLSSKRMLKILGQATGGYLGLLDMILRESAIRALKKGLQKIDLDTLKEVTEEYR
B2 returned an emPAI of 2.43.
